{"source": "patent US20060270596A1", "about": "(CENTRE NATIONAL DE LA RECHERCHE SCIENTIFIQUE CNRS, published 2006)", "binders": {"B1": {"name": "human THAP1 (THanatos-Associated-Protein-1), full length (other)", "chain": "MVQSCSAYGCKNRYDKDKPVSFHKFPLTRPSLCKEWEAAVRRKNFKPTKYSSICSEHFTPDCFKRECNNKLLKENAVPTIFLCTEPHDKKEDLLEPQEQLPPPPLPPPVSQVDAAIGLLMPPLQTPVNLSVFCDHNYTVEDTMHQRKRIHQLEQQVEKLRKKLKTAQQRCRRQERQLEKLKEVVHFQKEKDDVSERGYVILPNDYFEIVEVPA", "notes": "these tags are not written into the chain; also called hTHAP1; THAP1 wild type"}, "B2": {"name": "GST-Par4DD fusion protein (Par4 amino acids 250-342) (other)", "chain": "GFPRYNRDANVSGTLVSSSTLEKKIEDLEKEVVTERQENLRLVRLMQDKEEMIGKLKEEIDLLNRDLDDIEDENEQLKQENKTLLKVVGQLTR", "notes": "Expressed in E. coli, immobilized on glutathione sepharose; not shown: glutathione S-transferase encoded by vector pGEX-2T (Amersham Pharmacia Biotech)"}}, "key": {"[1]": {"biological_target": "T1, GST (glutathione S-transferase) control protein (UniProt P08515 1-218 = GST)", "T1 construct": "Negative control in GST pull-down assays; also called GST beads; GST alone", "T1 sequence (P08515 whole entry, the tested form may be a part)": "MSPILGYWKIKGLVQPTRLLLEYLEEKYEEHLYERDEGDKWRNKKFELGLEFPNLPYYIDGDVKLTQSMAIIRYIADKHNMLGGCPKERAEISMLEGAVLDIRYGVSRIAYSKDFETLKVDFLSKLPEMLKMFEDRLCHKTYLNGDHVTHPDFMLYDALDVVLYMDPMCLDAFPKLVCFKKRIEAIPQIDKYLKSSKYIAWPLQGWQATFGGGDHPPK", "test": "GST pull-down, negative control: in vitro translated 35S-labelled protein on GST alone immobilised on glutathione sepharose, SDS-PAGE, fluorography", "description": "To confirm the interaction observed in yeast, we performed in vitro GST pull down assays. Par4DD, expressed as a GST-tagged fusion protein and immobilized on glutathione sepharose, was incubated with radiolabeled in vitro translated THAP1. To generate the GST-Par4DD expression vector, Par4DD (amino acids 250-342) was amplified by PCR with primers Par4.10 (5′-[…]-3′) (SEQ ID NO: 194) and Par4.5, and cloned in frame downstream of the Glutathion S-Transferase ORF, into the BamHI site of the pGEX-2T prokaryotic expression vector (Amersham Pharmacia Biotech, Saclay, France). GST-Par4DD (amino acids 250-342) fusion protein encoded by plasmid pGEX-2T-Par4DD and control GST protein encoded by plasmid pGEX-2T, were then expressed in E. coli DH5α and purified by affinity chromatography with glutathione sepharose according to supplier's instructions (Amersham Pharmacia Biotech). The yield of proteins used in GST pull-down assays was determined by SDS-Polyarylamide Gel Electrophoresis (PAGE) and Coomassie blue staining analysis. In vitro-translated THAP1 was generated with the TNT-coupled reticulocyte lysate system (Promega, Madison, Wis., USA) using pGBKT7-THAP1 vector as template. […]"}, "[2]": {"biological_target": "T2, Par4 deletion mutant lacking the leucine zipper/death domain (Par4Δ, amino acids 1-276) (human, UniProt Q96IZ0 1-274)", "T2 construct": "Gal4 fusion in two-hybrid; also called Par4A; PAR4A", "T2 sequence": "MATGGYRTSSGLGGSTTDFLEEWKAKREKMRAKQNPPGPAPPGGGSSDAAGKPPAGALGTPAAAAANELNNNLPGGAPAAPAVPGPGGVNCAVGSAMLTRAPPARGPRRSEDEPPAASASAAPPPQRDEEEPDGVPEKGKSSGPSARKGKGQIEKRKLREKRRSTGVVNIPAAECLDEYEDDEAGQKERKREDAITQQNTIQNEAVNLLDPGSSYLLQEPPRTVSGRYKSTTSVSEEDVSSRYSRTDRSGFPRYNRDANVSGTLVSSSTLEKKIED", "test": "yeast two-hybrid"}, "[3]": {"biological_target": "the molecule itself", "test": "yeast two-hybrid, THAP1 bait"}, "[4]": {"biological_target": "T3, human prostate apoptosis response-4 (PAR4), full length (human, UniProt Q96IZ0 1-340, limits assumed)", "T3 construct": "Gal4-BD or Gal4-AD fusion in two-hybrid; also called Par4 wild type", "T3 chain": "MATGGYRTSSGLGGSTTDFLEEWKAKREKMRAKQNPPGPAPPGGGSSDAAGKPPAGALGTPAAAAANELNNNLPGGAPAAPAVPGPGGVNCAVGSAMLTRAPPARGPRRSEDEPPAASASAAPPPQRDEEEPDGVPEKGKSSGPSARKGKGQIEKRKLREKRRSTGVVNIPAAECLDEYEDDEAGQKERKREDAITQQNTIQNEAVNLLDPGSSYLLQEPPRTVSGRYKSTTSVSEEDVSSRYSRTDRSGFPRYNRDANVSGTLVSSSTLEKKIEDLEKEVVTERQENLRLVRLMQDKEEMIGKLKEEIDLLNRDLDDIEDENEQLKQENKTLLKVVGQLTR", "test": "yeast two-hybrid, Par4 wt bait", "description": "for mutant THAP1ΔQRCRR. The resulting PCR fragments were digested with EcoRI and BamHI, and cloned in frame downstream of the Gal4 Binding Domain (Gal4-BD) in pGBKT7 two-hybrid vector (Clontech) to generate pGBKT7-THAP1-RR/AA and -Δ(QRCRR), or downstream of the Enhanced Green Fluorescent Protein (EGFP)ORF in pEGFP.C2 vector (Clontech) to generate pEGFP.C2-THAP1-RR/AA and -Δ(QRCRR). THAP1RR/AA and THAP1ΔQRCRR THAP1 mutants were then tested in the three THAP1/Par4 interaction assays (two-hybrid assay, in vitro THAP1/Par4 interaction assay, in vivo THAP1/Par4 interaction assay) as described above for the THAP1-C1, -C2, -C3, -N1, -N2 or -N3 mutants."}, "[5]": {"biological_target": "B2", "test": "GST pull-down"}, "[6]": {"biological_target": "T4, Par4 leucine zipper/death domain (Par4DD, amino acids 250-342) (human, UniProt Q96IZ0 248-340)", "T4 construct": "Gal4 fusion in two-hybrid; also called myc-Par4DD", "T4 chain": "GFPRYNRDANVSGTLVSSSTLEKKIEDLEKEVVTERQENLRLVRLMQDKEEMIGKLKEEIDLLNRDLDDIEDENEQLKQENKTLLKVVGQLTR", "test": "yeast two-hybrid and in vivo interaction assay"}, "[7]": {"biological_target": "T5, human chemokine SLC/CCL21, mature form (amino acids 24-134) (human, UniProt O00585 24-134)", "T5 construct": "GenBank NP-002980; Used as Gal4 fusion in two-hybrid and as 35S-labelled in vitro translation product in pull-downs; also called SLC/6Ckine; SLC/CCL21 wild type", "T5 sequence": "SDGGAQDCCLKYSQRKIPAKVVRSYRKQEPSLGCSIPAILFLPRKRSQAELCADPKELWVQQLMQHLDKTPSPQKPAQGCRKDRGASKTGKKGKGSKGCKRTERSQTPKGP", "test": "yeast two-hybrid, SLC/CCL21 bait"}, "[8]": {"biological_target": "B1", "test": "yeast two-hybrid, THAP1 bait"}, "[9]": {"biological_target": "T6, THAP1ΔQRCRR mutant (deletion of residues 168-172) (human, UniProt Q9NVV9 1-213)", "T6 sequence": "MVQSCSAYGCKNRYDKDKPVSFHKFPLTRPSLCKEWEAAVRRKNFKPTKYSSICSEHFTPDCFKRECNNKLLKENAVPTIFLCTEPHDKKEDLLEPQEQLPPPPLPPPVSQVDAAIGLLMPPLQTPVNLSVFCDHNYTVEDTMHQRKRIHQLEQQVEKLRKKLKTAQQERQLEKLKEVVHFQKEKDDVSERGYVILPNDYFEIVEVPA", "test": "GST pull-down"}, "[10]": {"biological_target": "T7, THAP1-N1 deletion mutant (amino acids 1-90) (human, UniProt Q9NVV9 1-90)", "T7 construct": "Gal4 fusion, in vitro translation product or GFP fusion according to assay; also called zinc finger domain of THAP1", "T7 sequence": "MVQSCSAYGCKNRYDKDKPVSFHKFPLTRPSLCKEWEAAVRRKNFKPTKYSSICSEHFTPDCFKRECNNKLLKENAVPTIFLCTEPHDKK", "test": "GST pull-down: in vitro translated 35S-labelled protein on GST-Par4DD immobilised on glutathione sepharose, SDS-PAGE, fluorography", "description": "(§1) THAP1 mutants were also tested in the in vitro THAP1/Par4 interaction assay. In vitro-translated THAP1 mutants were generated with the TNT-coupled reticulocyte lysate system (Promega, Madison, Wis., USA) using pGBKT7-THAP1-C1, -C2, -C3, -N1, -N2 or -N3 vector as template. 25 μl of each ³⁵S-labelled THAP1 mutant was incubated with immobilized GST or GST-Par4 protein overnight at 4° C., in the following binding buffer: 10 mM NaPO4 pH 8.0, 140 mM NaCl, 3 mM MgCl2, 1 mM dithiothreitol (DTT), 0.05% NP40, and 0.2 mM phenylmethyl sulphonyl fluoride (PMSF), 1 mM Na Vanadate, 50 mM β Glycerophosphate, 25 μg/ml chimotrypsine, 5 μg/ml aprotinin, 10 μg/ml Leupeptin. Beads were then washed 5 times in 1 ml binding buffer. Bound proteins were eluted with 2× Laemmli SDS-PAGE sample buffer, fractionated by 10% SDS-PAGE and visualized by fluorography using Amplify (Amersham Pharmacia Biotech). As expected, THAP1-C1, -C2, -C3, -and -N3 interacted with GST/Par4DD (FIG. 4B)."}, "[11]": {"biological_target": "T8, THAP1-N2 deletion mutant (amino acids 1-166) (human, UniProt Q9NVV9 1-166)", "T8 construct": "Gal4 fusion, in vitro translation product or GFP fusion according to assay", "T8 sequence": "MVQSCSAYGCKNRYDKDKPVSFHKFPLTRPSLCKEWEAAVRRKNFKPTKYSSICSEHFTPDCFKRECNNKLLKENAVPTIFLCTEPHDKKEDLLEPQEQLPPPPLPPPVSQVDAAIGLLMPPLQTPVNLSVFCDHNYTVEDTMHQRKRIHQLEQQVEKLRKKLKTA", "test": "GST pull-down: in vitro translated 35S-labelled protein on GST-Par4DD immobilised on glutathione sepharose, SDS-PAGE, fluorography", "description": "as §1"}}}
{"binder": "B1", "values": [{"measurement": "binding result", "setting": "[1]", "value": "no binding"}, {"measurement": "binding result", "setting": "[2]", "value": "no binding"}, {"measurement": "binding result", "setting": "[3]", "value": "binds"}]}
{"binder": "THAP1 RR/AA mutant (R171A, R172A) (other, Gal4-BD fusion, in vitro translation product or GFP fusion according to assay; also called THAP RR/AA) MVQSCSAYGCKNRYDKDKPVSFHKFPLTRPSLCKEWEAAVRRKNFKPTKYSSICSEHFTPDCFKRECNNKLLKENAVPTIFLCTEPHDKKEDLLEPQEQLPPPPLPPPVSQVDAAIGLLMPPLQTPVNLSVFCDHNYTVEDTMHQRKRIHQLEQQVEKLRKKLKTAQQRCAAQERQLEKLKEVVHFQKEKDDVSERGYVILPNDYFEIVEVPA", "values": [{"measurement": "binding result", "setting": "[4]", "value": "no binding"}, {"measurement": "binding result", "setting": "[5]", "value": "no binding"}, {"measurement": "binding result", "setting": "[6]", "value": "no binding"}, {"measurement": "binding result", "setting": "[7]", "value": "binds"}, {"measurement": "binding result", "setting": "[8]", "value": "binds"}]}
{"binder": "B2", "values": [{"measurement": "binding result", "setting": "[9]", "value": "no binding"}, {"measurement": "binding result", "setting": "[10]", "value": "no binding"}, {"measurement": "binding result", "setting": "[11]", "value": "no binding"}]}
